In patent US20210292393A1 (published 2021):

These binders were tested against SARS-CoV-2 full-length spike protein on pseudotyped lentivirus (SARS-CoV-2, UniProt P0DTC2 14-1273) (assay: cell-based or functional assay).

Row | Binder | IC50 (pseudoneutralization) | IC80 (pseudoneutralization)
1 | anti-SARS-CoV-2 antibody 462 (antibody, V domains shown) VH: QVQLVESGGGVVQPGRSLRLSCAASGFTFSSYGMHWVRQAPGKGLEWVAVIWYDGNNKYYADSVKGRFTISRDNSKNTLYLQMNSLRAEDTAVYYCAKDPTWFGELPSYYYYGMDVWGQGTTVTVSS VL: not shown | > 50 µg/mL | > 50 µg/mL
2 | anti-SARS-CoV-2 antibody 481 (antibody, V domains shown) VH: EVQLVESGGGLIQPGGSLRLSCAASGFTVSSNYMSWVRQAPGKGLEWVSVIYSGGSTFYADSVKGRFTISRDNSKNTLYLQMNSLRAEDTAVYYCAREVAGTYDYWGQGTLVTVSS VL: DIQMTQSPSSVSASVGDRVTITCRASQGISSWLAWYQQKPGKAPKLLIYAASSLQSGVPSRFSGSGSGTDFTLTISSLQPEDFATYYCQQANSFPGGTFGPGTKVDIKR | 17.2 µg/mL | > 50 µg/mL
3 | anti-SARS-CoV-2 antibody 483 (antibody, V domains shown) VH: QVQLQESGPGLVKPSETLSLTCTVSGGSISSYYWSWIRQPPGKGLEWIGYIYYSGSTNYNPSLKSRVTISVDTSKNQFSLKLSSVTAADTAVYYCARAPEEKSSEIGELVGWGWFDPWGQGTLVTVSS VL: not shown | > 50 µg/mL | > 50 µg/mL
4 | anti-SARS-CoV-2 antibody 488 (antibody, V domains shown) VH: EVQLVESGGGLIQPGGSLRLSCAASGLTVSSNYMSWVRQAPGKGLEWVSVIYSGGSTYYADSVKGRFTISRDNSKNTLYLQMNSLRAEDTAVYYCARSPYGGNSWGQGTLVTVSS VL: not shown | 3.52 µg/mL | > 50 µg/mL
5 | anti-SARS-CoV-2 antibody 506 (antibody, V domains shown) VH: QITLKESGPTLVKPTQTLTLTCTFSGFSLSTSGVGVGWIRQPPGKALEWLALIYWDDDKRYSPSLKSRLTITKDTSKNQVVLTMTNMDPVDTATYYCAHHSLSSIFDYWGQGTLVTVSS VL: QSALTQPASVSGSPGQSITISCTGTSSDVGDYNYVSWYQQHPGKAPKLMIYEVSNRPSGVSNRFSGSKSGNTASLTISGLQAEDEADYYCSSYTSSSTVFGGGTKLTVLG | > 50 µg/mL | > 50 µg/mL
6 | anti-SARS-CoV-2 antibody 555 (antibody, V domains shown) VH: QVQLVQSGAEVKKPGSSVKVSCKASGGTFSNYAISWVRQAPGQGLEWMGRIIPILGIANYAQKFQGRVTITADKSTSTAYMELSSLRSEDTAVYYCARGYYEARHYYYYYAMDVWGQGTAVTVSS VL: not shown | 0.38 µg/mL | 1.4 µg/mL

These binders were tested against SARS-CoV-2 spike (S) protein, full length, wild type, expressed on the surface of CHO cells (SARS-CoV-2, UniProt P0DTC2 14-1273) (assay: not given).

Row | Binder | median fluorescence fold over isotype
7 | antibody 323 (antibody, V domains shown) VH: QVQLVQSGAEVKKPGASVKVSCKVSGYTLTELSMHWVRQAPGKGLEWMGGFDPEDGETIYAQKFQGRVTMTEDTSTDTAYMELSSLRSEDTAVYYCATSTIFAPGGWFDPWGQGTLVTVSS VL: QSALTQPASVSGSPGQSITISCTGTSSDVGSYNLVSWYQQHPGKAPKLMIYEVSKRPSGVSNRFSGSKSGNTASLTISGLQAEDEADYYCCSYAGSTHYVFGTGTKVTVL | 20.6 fold over isotype
8 | antibody 324 (antibody, V domains shown) VH: QVQLQESGPGLVKPSGTLSLTCAVSGGSISSSNWWSWVRQPPGKGLEWIGEIYHSGSTNYNPSLKSRVTISVDNSKNQFSLKLSSVTAADTAVYYCARESVAAAGISYYYYGMDVWGQGTTVTVSS VL: EIVLTQSPGTLSLSPGERATLSCRASQSVSGRYLAWYQQKPGQAPRLLIYGASSRATGIPDRFSGSGSGTDFTLTISRLEPEDFAVYYCQHYGSSPGTFGQGTRLEIK | 9.44 fold over isotype
9 | antibody 326 (antibody, V domains shown) VH: QITLKESGPTLVKPTQTLTLTCTFSGFSLNTSGVGVGWIRQPPGKALEWLSLIFWNDDKRYSPSLRSRLTITKDTSKNQVVLTMTNMDPVDTATYFCAHRNSGWSLKFDSWGQGSLVTVSA VL: DIQMTQSPSSVSASVGDRVTITCRARQGISSWLVWYQQKPGKAPKLLIFGASSLQSGVPSRFNASGTGTEFTLTISSLQPEDFATYYCQQADSFPITFGQGTRLEIK | 10.1 fold over isotype
10 | antibody 365 (antibody, V domains shown) VH: QVQLVESGGGVVQPGRSLRLSCAASGFNLSSYAMHWVRQASGKGLEWVSLISYDGSIKYYTDSVKGRFTVSGDNSKNTLFLQMNSLRPDDSALYYCVRGGVSGPNSFDMWGQGTTVTVSS VL: DVVMTQSPLSLPVTLGQPASISCRSSQSLVYSDGNTYVNWFQQRPGQSPRRLIYKVSIRASGVPDRFSGSGSGTDFALKISRVEAEDVGVYYCMQGTHWPVTFGQGTKVEIK | 10.7 fold over isotype
11 | antibody 327 (antibody, V domains shown) VH: QVQLVESGGGVVQPGRSLRLSCAASGFNLSNYAMHWVRQASGKGLEWVSLISYDGSIKYYTDSVKGRFTVSGDNSKNTLFLQMNSLRPDDSALYYCVRGGVSGPNSFDMWGQGTTVTVSS VL: DVVMTQSPLSLPVTLGQPASISCRSSQSLVYSDGNTYVNWFQQRPGQSPRRLIYQVSIRASGVPDRFSGSGSGTDFALKISRVEAEDVGIYYCMQGTHWPVTFGQGTKVEIK | 9.54 fold over isotype
12 | antibody 329 (antibody, V domains shown) VH: EVQLVESGGGLVQPGGSLRLSCAASGFTFSSYWMHWVRQAPGKGLVWVSRINSDGSSTSYADSVKGRFTISRDNAKNTLYLQMNSLRAEDTAVYYCAREGIVATITLDYWGQGTLVTVSS VL: not shown | 9.41 fold over isotype
13 | antibody 331 (antibody, V domains shown) V domain 1: QITLKESGPTLVKPTETLTLTCSFSGFSLTKTGEAAGWIRQAPGRALEWVTVIFWDDDKRYSPSLQNRISVTKDTSKNQVVLRMTNVARFDTGTYFCWAMGGPGKEYFGQGTLVAVSS V domain 2: QSVLTQPPSVSGAPGQRVTISCTGTSSSIGPYSDVHWYQHVSGKAPRLLIFGNSNRPSGVPDRFSGSKSGTSASLVIAGLQAEDEADYYCQSYDSSLGEIYVFGTGTTVTVL | 20.1 fold over isotype
14 | antibody 339 (antibody, V domains shown) V domain 1: QITLKESGPTLVKPTETLTLTCSFSGFSLTRTGEAAGWIRQAPGRALEWVTVIFWDDDKRYSPSLQSRLTVTKDTSKNQVVLTMTNVARFDTATYFCWAMGGPGKEYFGQGTQVAVSS V domain 2: QSVLTQPPSVSGAPGQRVTISCTGTSSSIGPYSDVHWYQHVSGKAPRLLIFGNSNRPSGVPDRFSGSKSGTSASLVIAGLQAEDEADYYCQSYDSSLGEIYVFGTGTTVTVL | 21.2 fold over isotype
15 | antibody 333 (antibody, V domains shown) VH: QVHLVESGGGVVLPGRSLRLSCSASQFIFSNYDMHWVRQSPGMGLEWVAGISSDGSDKYYIDSVRGRFTISRDNAKNTLFLQMNSLTTEDTAVYSCAKGGGKFGQYWGRGTLVTVSS VL: AIQMTQSPSSLSASVGDRVTITCRASQVIRNDLAWFQQKPGEAPNLLVYSASNLQSGVPSRFSGSGSGTDFTLTISSLQPEDFATYYCLQDYSYPYTFGQGTKLDMK | 1.27 fold over isotype
16 | antibody 340 (antibody, V domains shown) VH: QVQLVQSGAEVKKPGASVKVSCKASGYTFTSYDINWVRQATGQGLEWMGWMNPNSGNTGYAQKFQGRVTMTRNTSISTAYMELSSLRSEDTAVYYCARGRYCTGGVCWGDWYFDLWGRGTLVTVSS VL: QSVLTQPPSVSGAPGQRVTISCTGSSSNIGAGYDVHWYQQLPGTAPKFLIYGNSNRPSGVPDRFSGSKSGTSASLAITGLQAEDEADYYCQSYDSSLSGPVFGGGTKLTVL | 33.2 fold over isotype
